One block for each binder: values may come before it.
Molecular target: T1, aIF2-γ subunit of translation initiation factor aIF2, recombinant, His-tagged (Sulfolobus solfataricus, UniProt Q980A5 1-415)
T1 construct: translation initiation factor 2 subunit gamma (aIF2-γ), Sulfolobus solfataricus
T1 sequence (looked up): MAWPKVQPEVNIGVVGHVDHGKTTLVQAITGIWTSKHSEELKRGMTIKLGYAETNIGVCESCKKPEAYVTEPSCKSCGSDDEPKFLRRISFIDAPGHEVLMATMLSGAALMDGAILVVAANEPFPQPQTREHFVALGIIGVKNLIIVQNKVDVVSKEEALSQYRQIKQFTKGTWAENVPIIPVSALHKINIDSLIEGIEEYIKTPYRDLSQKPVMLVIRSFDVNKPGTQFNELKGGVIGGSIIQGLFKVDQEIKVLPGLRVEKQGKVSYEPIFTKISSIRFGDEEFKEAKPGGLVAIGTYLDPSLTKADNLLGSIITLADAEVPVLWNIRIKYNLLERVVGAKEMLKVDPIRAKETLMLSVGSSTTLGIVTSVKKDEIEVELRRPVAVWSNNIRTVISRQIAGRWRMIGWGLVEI
Test: native gel or EMSA; acidic native polyacrylamide gel electrophoresis of the individual aIF2 subunits and the trimeric complex (Supplementary Figure S3, lanes 1-4)
Settings: both partners purified

binding result: binds
B1: aIF2-β subunit of translation initiation factor aIF2, recombinant, His-tagged (natural protein, Sulfolobus solfataricus, UniProt Q97W59 1-139, looked up)
chain: MSSEKEYVEMLDRLYSKLPEKGRKEGTQSLPNMIILNIGNTTIIRNFAEYCDRIRREDKICMKYLLKELAAPGNVDDKGELVIQGKFSSQVINTLMERFLKAYVECSTCKSLDTILKKEKKSWYIVCLACGAQTPVKPL
notes: translation initiation factor 2 subunit beta (aIF2-β), Sulfolobus solfataricus; also called aIF2-ß

binding result: binds
B2: aIF2-α subunit of translation initiation factor aIF2, recombinant, His-tagged (natural protein, Sulfolobus solfataricus, UniProt Q97Z79 1-266, looked up)
chain: MIYSRSKLPSEGEILIATVKQVFDYGSYVSLDEYGGLQAFLPWSEVSSKWVKNIRDVLKENRKVIVKVIRVDRRKGTVDVSLKKVTDDERRKKNLQWKKIQRLDKILELVSQKLKLSEKDAWEQVAWKLEAKYGDPITAIEKAVKEGEKILIDAGVPEIWVKPLLEEASKHAEERKVKMSGLITVRTNEPLGVEKIKEVISKALENIEQDYESLLNIKIYTIGAPRYRVDVVGTNPKEASEALNQIISNLIKIGKEENVDISVVKK
notes: translation initiation factor 2 subunit alpha (aIF2-α), Sulfolobus solfataricus
